Results from patent publication CN113354737A (GUANGZHOU EXCELMAB BIOMEDICAL TECH CO LTD, dated 2021).
Like-named read-outs stand apart in the source and are kept apart here. Values belong to the molecule of their own block, whether it stands above or below them.

What was measured:
Test in all cases: ELISA, coated antigen, HRP anti-human IgG
重组人GPC3近膜端抗原 [1] = biological target: T1, 重组人GPC3近膜端抗原 (human, UniProt P51654 524-563)
T1 construct: range 524-563
T1 chain (looked up): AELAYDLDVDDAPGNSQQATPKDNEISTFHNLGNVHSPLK

重组人GPC3近膜端抗原 [2] = biological target: T1, 重组人GPC3近膜端抗原
重组人GPC3近膜端抗原 [3] = biological target: T1, 重组人GPC3近膜端抗原
重组人GPC3胞外区抗原 = biological target: T2, 重组人GPC3胞外区抗原 (human, UniProt P51654 25-559, limits assumed)
T2 construct: extracellular domain
T2 sequence (P51654 25-559 limits assumed): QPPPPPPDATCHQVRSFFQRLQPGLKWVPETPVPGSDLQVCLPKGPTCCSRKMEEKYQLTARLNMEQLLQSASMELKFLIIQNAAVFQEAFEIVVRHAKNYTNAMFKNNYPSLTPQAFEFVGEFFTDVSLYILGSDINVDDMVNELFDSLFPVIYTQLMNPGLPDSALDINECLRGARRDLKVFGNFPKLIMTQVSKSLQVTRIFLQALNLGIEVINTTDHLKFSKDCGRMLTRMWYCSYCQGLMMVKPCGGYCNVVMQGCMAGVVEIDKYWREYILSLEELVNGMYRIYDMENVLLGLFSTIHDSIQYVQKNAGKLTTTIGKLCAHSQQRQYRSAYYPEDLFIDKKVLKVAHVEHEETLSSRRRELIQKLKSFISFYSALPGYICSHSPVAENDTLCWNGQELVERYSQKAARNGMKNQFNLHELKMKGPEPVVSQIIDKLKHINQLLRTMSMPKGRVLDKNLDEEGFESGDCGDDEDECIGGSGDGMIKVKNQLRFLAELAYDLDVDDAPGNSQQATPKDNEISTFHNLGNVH

Molecule: GC33单抗模拟物 (antibody)
- EC50 (重组人GPC3近膜端抗原 [1]): 0.063 µg/mL

B1: 亲和力成熟变体7C6 (antibody, V domains shown)
VH: QVQLQQPGAELVKPGASVKLSCKASGYTFTTYYMYWVKQRPGQGLEWIGEINPSNGGTNFNEKFKSKATLTVDKSSSTAYMQLSSLTSEDSAVYYCTTFAYWGQGTLVTVSA
VL: DIVMTQSPSSLSASLGGKVTITCKASQDINKYIVWYQHKPGKGPRLLIHYTSILQPGIPSRFSGSGSGRDYSFSISNLEPEDIATYYCLQYDNLWTFGGGTKLEIK
- EC50 (重组人GPC3近膜端抗原 [2]): 0.0428 µg/mL

B4: 亲和力成熟变体5A5 (antibody, V domains shown)
VH: QVQLQQSGTELVRPGASVKLSCKALGYTFTDYEMHWVKQTPVHGLEWIGAIHPGSGDTAYNQRFKGKATLTADKSSSTAYMEYSSLTSEDSAVYYCTRFYSYAYWGQGTLVTVSA
VL: DVVMTQTPLSLPVSLGDQASISCRSSQSLVHSNGNTYLQWYLQKPGQSPKLLIYKVSNRFSGVPDRFSGRGSGTDFTLKISRVEAEDLGVYFCSQSIYVPYTFGGGTKLEIK
- EC50 (重组人GPC3近膜端抗原 [2]): 0.0951 µg/mL

Further lines, results first:

- EC50 (重组人GPC3近膜端抗原 [2]): 0.12 µg/mL
B2: 亲和力成熟变体5E11 (antibody, V domains shown)
VH: QVQLKQSGAELMKPGASVKISCKATGYTFSRYWIEWVKQRPGHGLEWIGEILPGSGSTSYNEKFKGKATFTADTSSNTAYMQLSSLTSEDSAVYYCARSARATYYFDYWGQGTTLTVSS
VL: DIQMTQTTSSLSASLGDRVTISCWASQDISNYLNWYQQKPDGTVKLLIYYTSTLHSGVPSRFSGSGSGTDYSLTISNLEQEDIATYFCQQGNALPYTFGGGTKLEIK

- EC50 (重组人GPC3近膜端抗原 [2]): 0.141 µg/mL
- EC50 (重组人GPC3近膜端抗原 [3]): 0.0279 µg/mL
- EC50 (重组人GPC3胞外区抗原): 0.0836 µg/mL
B3: 人源GPC3抗体10C7 (antibody, V domains shown)
VH: QVQLVQSGAEVKKPGASVKLSCKASGYTFTDYEMHWVKQTPGKGLKWIGALDPKTGDTAYAQKFQGRATLTADTSTDTAYMELSSLRSEDSAVYYCTRFYSYTYWGQGTLVTVSS
VL: DIVLTQSPLSLTVTPGEPASISCRSSESLVHSNGNTYLSWLQQRPGQPPRLLIYKISNRFSGVPDRFSGSGAGTDFTLKISRVEAEDVGVYYCTQATQFPYTFGQGTKVEIK
notes: also called 抗人GPC3抗体10C7
